Measured values: patent US20070274915

Test system: AU-tagged PLC-γ1
Sequence (P19174 2-1290): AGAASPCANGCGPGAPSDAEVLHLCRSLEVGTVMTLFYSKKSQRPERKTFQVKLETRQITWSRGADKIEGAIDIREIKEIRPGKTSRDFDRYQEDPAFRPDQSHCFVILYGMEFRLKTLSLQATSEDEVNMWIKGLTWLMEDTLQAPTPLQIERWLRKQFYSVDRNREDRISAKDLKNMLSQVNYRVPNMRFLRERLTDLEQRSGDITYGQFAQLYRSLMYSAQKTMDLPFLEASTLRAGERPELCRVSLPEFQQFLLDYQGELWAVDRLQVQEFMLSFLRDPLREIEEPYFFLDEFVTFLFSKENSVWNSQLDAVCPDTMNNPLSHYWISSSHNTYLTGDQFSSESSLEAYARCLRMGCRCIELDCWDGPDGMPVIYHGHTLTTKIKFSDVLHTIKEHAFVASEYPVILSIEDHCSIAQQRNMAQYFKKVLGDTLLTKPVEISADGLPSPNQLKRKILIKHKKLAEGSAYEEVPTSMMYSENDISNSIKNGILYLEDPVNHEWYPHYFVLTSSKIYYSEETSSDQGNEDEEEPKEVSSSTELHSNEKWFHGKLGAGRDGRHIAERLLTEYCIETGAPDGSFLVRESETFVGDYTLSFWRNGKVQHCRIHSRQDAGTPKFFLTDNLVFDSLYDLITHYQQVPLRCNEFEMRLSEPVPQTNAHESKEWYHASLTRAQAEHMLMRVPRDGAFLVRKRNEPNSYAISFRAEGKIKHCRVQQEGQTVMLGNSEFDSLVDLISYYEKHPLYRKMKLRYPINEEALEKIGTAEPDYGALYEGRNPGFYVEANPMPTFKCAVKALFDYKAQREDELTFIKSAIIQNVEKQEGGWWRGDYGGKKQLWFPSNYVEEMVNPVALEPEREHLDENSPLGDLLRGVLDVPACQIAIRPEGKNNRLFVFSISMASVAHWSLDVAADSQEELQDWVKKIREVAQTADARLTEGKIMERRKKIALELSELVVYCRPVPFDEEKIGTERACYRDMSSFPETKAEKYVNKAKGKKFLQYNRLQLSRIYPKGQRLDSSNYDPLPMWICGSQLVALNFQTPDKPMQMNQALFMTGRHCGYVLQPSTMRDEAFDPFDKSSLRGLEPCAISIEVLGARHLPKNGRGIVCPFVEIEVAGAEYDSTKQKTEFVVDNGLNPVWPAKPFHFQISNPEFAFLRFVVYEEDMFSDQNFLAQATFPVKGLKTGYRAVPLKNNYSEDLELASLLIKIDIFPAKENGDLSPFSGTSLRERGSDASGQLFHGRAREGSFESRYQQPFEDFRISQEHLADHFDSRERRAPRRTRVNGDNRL

myc-tagged Itch, sequence (chain, as listed by the source): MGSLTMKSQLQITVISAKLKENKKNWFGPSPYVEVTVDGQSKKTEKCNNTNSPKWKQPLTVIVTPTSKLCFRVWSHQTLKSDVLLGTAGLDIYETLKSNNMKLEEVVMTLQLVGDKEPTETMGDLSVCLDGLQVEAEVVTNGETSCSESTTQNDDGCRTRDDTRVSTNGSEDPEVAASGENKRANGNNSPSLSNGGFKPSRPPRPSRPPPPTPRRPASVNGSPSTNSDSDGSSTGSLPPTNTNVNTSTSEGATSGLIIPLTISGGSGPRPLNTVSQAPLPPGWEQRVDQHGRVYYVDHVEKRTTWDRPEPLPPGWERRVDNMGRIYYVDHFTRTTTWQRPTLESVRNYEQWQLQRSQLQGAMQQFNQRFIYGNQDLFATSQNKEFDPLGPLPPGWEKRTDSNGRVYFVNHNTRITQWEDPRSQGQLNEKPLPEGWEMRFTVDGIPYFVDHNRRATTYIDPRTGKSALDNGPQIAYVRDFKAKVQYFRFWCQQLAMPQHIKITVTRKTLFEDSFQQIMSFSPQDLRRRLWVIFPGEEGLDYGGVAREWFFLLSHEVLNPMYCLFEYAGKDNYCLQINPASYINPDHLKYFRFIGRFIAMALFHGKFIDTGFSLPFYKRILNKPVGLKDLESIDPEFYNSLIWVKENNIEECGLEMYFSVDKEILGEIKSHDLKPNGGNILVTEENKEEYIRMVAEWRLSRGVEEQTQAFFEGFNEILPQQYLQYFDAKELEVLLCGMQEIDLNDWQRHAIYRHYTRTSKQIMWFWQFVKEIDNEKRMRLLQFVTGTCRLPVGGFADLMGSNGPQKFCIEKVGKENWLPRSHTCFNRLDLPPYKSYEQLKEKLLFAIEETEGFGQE

## myc-tagged Itch
  ionomycin-dependent degradation of PLC-γ1 (HEK 293 transfection, immunoblot): Itch and Nedd4 both facilitated the ionomycin-dependent degradation of PLC-γ1
